This is an account of results in patent publication US5811533, “High-affinity oligonucleotide ligands to vascular endothelial growth factor (VEGF)” (NeXstar Pharmaceuticals, Inc.).

Series [1] deals with T1, VEGF165 (recombinant human vascular endothelial growth factor, 165 aa form) (Homo sapiens, UniProt P15692-4 P15692-4:27-191). As to the kind of experiment: filter; PBS, 0.01% HSA, 37 C; Kd1, X1 0.45, Kd2 21 nM. Conditions: tags: gift from N. Ferrara, Genentech; chain copies: 2 (dimer, stated); label: 32P. How it is done: (§1) Internally-labeled RNA ligands used for binding studies were prepared by in vitro transcription using T7 RNA polymerase (Milligan et al. (1987) Nucl. Acids Res. 15:8783) and were purified on denaturing polyacrylamide gels to ensure size homogeneity. All RNA ligands were diluted to about 1 nM in PBS, denatured at 90° C. for 2 minutes, and then cooled on ice prior to incubation with the protein. This denaturation/renaturation cycle performed at high dilution is necessary to ensure that the RNA is essentially free from dimers and other higher order aggregates. Concentrations of the stock solutions of VEGF, from which other dilutions were made, were determined from the absorbance reading at 280 nm using the calculated value for ε280 of 46,600 M^-1cm^-1 for the VEGF dimer (Gill et al. (1989) Anal. Biochem. 182:319). Data sets that define the binding curves were fit to either eq. 2 or eq. 5 by the non-linear least squares method using the software package Kaleidagraph (Synergy Software, Reading, Pa.). […]

Series [2] has as its target T1, VEGF165 (recombinant human vascular …). In words: inhibition; VEGF receptor binding. Conditions: tags: gift from N. Ferrara, Genentech; chain copies: 2 (dimer, stated). How it is done: VEGF was radioiodinated by the Iodegen method (Jakeman et al. (1992) J. Clin. Invest. 89:244) to a specific activity of 2.4×10^4 cpm/ng. Human umbilical vein endothelial cells (HUVECs) were plated in 24-well plates at a density of 1–2×10^5 cells/well and grown to confluence in EGM (Clonetics, San Diego, Calif.) media (24–48 hrs). At confluence, the cells were washed 3 times with PBS and incubated for 2 hrs at 4° C. in α-MEM serum-free media containing ^125I-labeled VEGF with or without unlabeled competitor (VEGF, EGF, or RNA). For experiments done with RNA, 0.2 units of placental RNase inhibitor (Promega, Madison, Wis.) were included in the media. […] At the end of the 2 hr incubation period, the supernatant was removed and the wells washed 2 times with PBS. HUVECs were then lysed with 1% triton X-100/1M NaOH and the amount of cell-associated ^125I-VEGF determined by gamma counting.
(§2) To this end, certain ligands were synthesized and tested for binding affinity. The binding studies were performed using the protocols described in Example 1.

Series [3] shares this target. In words: filter. Conditions: tags: gift from N. Ferrara, Genentech; chain copies: 2 (dimer, stated). How it is done:
Internally-labeled RNA ligands used for binding studies were prepared by in vitro transcription using T7 RNA polymerase (Milligan et al. (1987) Nucl. Acids Res. 15:8783) and were purified on denaturing polyacrylamide gels to ensure size homogeneity. All RNA ligands were diluted to about 1 nM in PBS, denatured at 90° C. for 2 minutes, and then cooled on ice prior to incubation with the protein. This denaturation/renaturation cycle performed at high dilution is necessary to ensure that the RNA is essentially free from dimers and other higher order aggregates. Concentrations of the stock solutions of VEGF, from which other dilutions were made, were determined from the absorbance reading at 280 nm using the calculated value for ε280 of 46,600 M^-1cm^-1 for the VEGF dimer (Gill et al. (1989) Anal. Biochem. 182:319). Data sets that define the binding curves were fit to either eq. 2 or eq. 5 by the non-linear least squares method using the software package Kaleidagraph (Synergy Software, Reading, Pa.).
as §2

Series [4] shares this target. In words: filter; Kd1, X1 0.68, Kd2 ~100 nM. The conditions noted are these: tags: gift from N. Ferrara, Genentech; chain copies: 2 (dimer, stated).
Series [5] deals with antithrombin III (UniProt P01008 P01008:33-464). In words: filter; specificity. The conditions noted are these: label: 32P. The method, then: (§3) Dissociation constants were determined using the nitrocellulose filter partitioning technique.
Series [6] concerns the target bFGF (UniProt P09038 P09038:143-288). As to the kind of experiment: filter; specificity. The conditions noted are these: label: 32P. How it is done:
as §3

Series [7] has as its target T1, VEGF165 (recombinant human vascular …). As to the kind of experiment: filter; PBS, 0.01% HSA, 37 C; Kd1, X1 0.73, Kd2 82 nM. Conditions: tags: gift from N. Ferrara, Genentech; chain copies: 2 (dimer, stated); label: 32P. How it is done: as §1
Series [8] shares this target. As to the kind of experiment: filter; PBS, 0.01% HSA, 37 C; Kd1, X1 0.76, Kd2 180 nM. The conditions noted are these: tags: gift from N. Ferrara, Genentech; chain copies: 2 (dimer, stated); label: 32P; bulged hairpin. How it is done: as §1
Series [9] has the same target. In words: filter; PBS, 0.01% HSA, 37 C; Kd1, X1 0.76, Kd2 182 nM. The conditions noted are these: tags: gift from N. Ferrara, Genentech; chain copies: 2 (dimer, stated); label: 32P. How it is done: as §1
Series [10] has the same target. As to the kind of experiment: filter; Kd1, X1 0.50, Kd2 15 nM. Conditions: tags: gift from N. Ferrara, Genentech; chain copies: 2 (dimer, stated).
Series [11] shares this target. As to the kind of experiment: filter; PBS, 0.01% HSA, 37 C; Kd1, X1 0.54, Kd2 181 nM. The conditions noted are these: tags: gift from N. Ferrara, Genentech; chain copies: 2 (dimer, stated); label: 32P. How it is done: as §1
Series [12] shares this target. As to the kind of experiment: filter; Kd1, X1 0.42, Kd2 ~100 nM. The conditions noted are these: tags: gift from N. Ferrara, Genentech; chain copies: 2 (dimer, stated).
Series [13] shares this target. As to the kind of experiment: filter; Kd1, X1 0.79, Kd2 ~100 nM. Conditions: tags: gift from N. Ferrara, Genentech; chain copies: 2 (dimer, stated).
Series [14] shares this target. In words: FP filter; nitrocellulose filter; Kd1, X1 0.62, Kd2 ~100 nM. Conditions: tags: gift from N. Ferrara, Genentech; chain copies: 2 (dimer, stated).
Series [15] has the same target. As to the kind of experiment: filter; Kd1, X1 0.82, Kd2 10-100 nM. Conditions: tags: gift from N. Ferrara, Genentech; chain copies: 2 (dimer, stated).
For series [16] the target is unchanged. In words: filter; Kd1, X1 0.74, Kd2 ~100 nM. Conditions: tags: gift from N. Ferrara, Genentech; chain copies: 2 (dimer, stated).
The target is the same in series [17]. As to the kind of experiment: filter; clone listed in families 1 and 2. The conditions noted are these: tags: gift from N. Ferrara, Genentech; chain copies: 2 (dimer, stated).
The target is the same in series [18]. In words: filter; Kd1, X1 0.77, Kd2 10-100 nM. Conditions: tags: gift from N. Ferrara, Genentech; chain copies: 2 (dimer, stated).
Series [19] has the same target. In words: filter; PBS, 0.01% HSA, 37 C; Kd1, X1 0.56, Kd2 21 nM. Conditions: tags: gift from N. Ferrara, Genentech; chain copies: 2 (dimer, stated); label: 32P. How it is done: as §1

T1 sequence (P15692 other isoform, or with tags, fused parts or gaps): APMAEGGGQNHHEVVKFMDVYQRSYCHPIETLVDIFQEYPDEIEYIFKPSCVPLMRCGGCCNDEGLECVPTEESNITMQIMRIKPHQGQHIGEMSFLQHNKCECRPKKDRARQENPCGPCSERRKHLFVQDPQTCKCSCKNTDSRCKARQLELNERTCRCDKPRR
Chain of bFGF (P09038 143-288, one chain of several): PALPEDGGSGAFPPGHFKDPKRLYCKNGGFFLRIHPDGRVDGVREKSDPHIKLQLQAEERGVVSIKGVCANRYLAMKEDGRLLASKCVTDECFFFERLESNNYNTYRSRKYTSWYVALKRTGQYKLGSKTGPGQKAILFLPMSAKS
Chain of antithrombin III (P01008 33-464, one chain of several): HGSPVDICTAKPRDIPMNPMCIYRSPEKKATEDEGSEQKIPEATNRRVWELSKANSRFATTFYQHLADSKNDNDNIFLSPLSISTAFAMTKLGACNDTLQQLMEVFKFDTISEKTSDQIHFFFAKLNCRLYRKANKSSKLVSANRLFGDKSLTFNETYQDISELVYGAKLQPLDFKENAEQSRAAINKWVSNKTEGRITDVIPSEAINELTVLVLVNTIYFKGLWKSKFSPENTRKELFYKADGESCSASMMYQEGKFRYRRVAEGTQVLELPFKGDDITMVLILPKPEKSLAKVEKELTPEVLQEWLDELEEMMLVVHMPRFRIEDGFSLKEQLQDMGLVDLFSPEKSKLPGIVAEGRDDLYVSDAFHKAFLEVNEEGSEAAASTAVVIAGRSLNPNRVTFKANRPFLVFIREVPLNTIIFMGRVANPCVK

B1: ligand 84 (ssRNA)
RNA: GGGAGCUCAGAAUAAACGCUCAAUAGUUGGAGGCCUGUCCUCGCCGUAGAGCGUUCGACAUGAGGCCCGGAUCCGGC
With B1, the Kd in [1] stood at 0.82 nM.
As for ACCCUGAUGGUAGACGCCGGGGUG (ssRNA, modified variant of NX-107 (position code lost in text)) [NX-176], in series [2], the Ki came to 10 nM. The Kd in [3] came to 65 nM.

B2: 41A (ssRNA)
RNA: GGGAGACAAGAAUAACGCUCAAAACGGAGUGGUAGGCGUUGGGUGCCAGGAAUUCGACAGGAGGCUCACAACAGGC
modifications: 2'-NH2 pyrimidines
For B2, the Kd in series [4] came out at 0.86 nM.
As for GGAAGCUUGAUGGGUGACACACGUCAUGCCGAGCU (ssRNA) [ligand 44t], the Kd is 12 µM in series [5], 600 nM in [6] and 0.48 nM in series [7].
Take GGAAGGGAACCUGCGUCUCGGCACCUUCG (ssRNA) [ligand 12t]: the Kd in series [8] came to 1.1 nM.
As for GGCCGGUAGUCGCAUGGCCCAUCGCGCCCGG (ssRNA) [ligand 100t], the Kd was 0.42 nM in series [9], 3 µM in [5] and 1000 nM in series [6].

B3: 32B (ssRNA)
RNA: GGGAGGACGAUGCGGCAACAUUGGCACCAAUGCUCUGUGUUAAUGUGGGGUGGGAACGGCGCCGCAGACGACUCGCCCGA
modifications: 2'-NH2 pyrimidines
Regarding B3, the Kd in series [10] was found to be 0.05 nM.
For the molecule GGAACGGUUCUGUGUGUGGACUAGCCGCGGCCGUU (ssRNA) [ligand 126t], in series [11], the Kd was found to be 1.4 nM.

B4: 14A (ssRNA)
RNA: GGGAGACAAGAAUAACGCUCAAGCAACAGAGGCUGAUGGUAGACGCCGGCCAUUCGACAGGAGGCUCACAACAGGC
modifications: 2'-NH2 pyrimidines
Turning to B4, the Kd in series [12] came to 0.7 nM.

B5: 24A (ssRNA)
RNA: GGGAGACAAGAAUAACGCUCAACCCUGAUGGUAGACGCCGGGGUGCCGGAAUUCGACAGGAGGCUCACAACAGGC
modifications: 2'-NH2 pyrimidines
In the case of B5, in series [13], the Kd stood at 0.71 nM.

B6: 17B (ssRNA)
RNA: GGGAGGACGAUGCGGCGCUGUGUUCAAUGCGGGGAUCGGGCCGGAGGAUGAACAAAUGGCGGGUCAGACGACUCGCCCGA
modifications: 2'-NH2 pyrimidines
With B6, the Kd in series [14] worked out at 0.028 nM.

B7: 34B (ssRNA)
RNA: GGGAGGACGAUGCGGUGUGGUCAAUGUGGGGUAGGGCUGGUAGGGCAUUCCGUACUGGUGUGGUCAGACGACUCGCCCGA
modifications: 2'-NH2 pyrimidines
As for B7, the Kd in series [15] is 0.068 nM.

B8: 26B (ssRNA)
RNA: GGGAGGACGAUGCGGCACCUUCGUGGGGUCAAGGAGGGUCGCGAGGCCGCAGGAUCAACCGUGUGCAGACGACUCGCCCGA
modifications: 2'-NH2 pyrimidines
As for B8, the Kd in [16] was 0.37 nM.

B9: ssDNA b81 (ssDNA)
DNA: CTACCTACGATCTGACTAGCCCGAATGGGGCTGCGACTGCAGTGGACGTCACGTCGTTAGCTTACTCTCATGTAGTTCCT
On to B9, for which the Kd in series [17] is 0.3 nM.

B10: 30B (ssRNA)
RNA: GGGAGGACGAUGCGGCAUGGUUGUGAACUGUUGUGAUCAAUGCGGGGAGGGUAAUGGUGGGUGGUCAGACGACUCGCCCGA
modifications: 2'-NH2 pyrimidines
As for B10, the Kd in series [18] was found to be 0.034 nM.

B11: ligand 12 (ssRNA)
RNA: GGGAGCUCAGAAUAAACGCUCAAGCAGACGAAGGGAACCUGCGUCUCGGCACCUUCGACAUGAGGCCCGGAUCCGGC
As for B11, the Kd in series [19] came to 0.48 nM.

B12: NX-214 (mixed)
mixed: TTTTACCCUGAUGGUAGACGCCGGGGUGTTTTT
modifications: 2'-NH2/2'-OMe variant (position code lost in text); 5' and 3' phosphorothioate thymidine caps
Regarding B12, the Ki in series [2] was 1 nM. In addition, in series [3], the Kd came to 0.2 nM.

B13: NX-213 (mixed)
mixed: TTTTACCCUGAUGGUAGACGCCGGGGUGTTTTT
modifications: 2'-NH2 pyrimidines; all purines 2'-OMe except four; 5' and 3' phosphorothioate thymidine caps
For B13, the Ki in series [2] turned out to be 1 nM. The Kd in [3] was determined as 0.2 nM.

B14: NX-178 (mixed)
mixed: TTTTACCCUGAUGGUAGACGCCGGGGUGTTTTT
modifications: 2'-NH2 pyrimidines; 5' T*T*T*T* and 3' T*T*T*T*T phosphorothioate thymidine caps
Regarding B14, the Ki in [2] worked out at 1 nM. For the same molecule, the Kd in series [3] was 0.7 nM.
For TTTTACCCUGAUGGUAGACGCCGGGGUGTTTTT (mixed, as NX-213 plus internal phosphorothioate between A7 and U8) [NX-215], in that order: 1 nM and 0.2 nM.
For TTTTACCCUGAUGGUAGACGCCGGGGUGTTTTT (mixed, all 2'-OMe core; 5' and 3' phosphorothioate thymidine caps) [NX-191], in that order: 500 nM and 120 nM.

By Kd is commonly meant the constant that tells how readily two partners part at equilibrium. As usually defined, the Ki is the dissociation constant of the complex between target and ligand, obtained from inhibition or displacement.
